The values that follow come from US20050163769A1 (AbbVie / Abbott, published 2005).

Test [1] addresses T1, recombinant soluble recombinant human α5β1 integrin-Fc fusion protein (human, UniProt P08648 42-995; P05556 21-728, limits assumed).
T1 construct: Coated on ELISA plates at 1.0 µg/ml; The construct's limits and the Fc are not described; not shown: Fc part
Kind of test: competition ELISA on coated α5β1 integrin-Fc; competitor: biotinylated IIA1. As for the experimental part: (§1) Wells of 96-well ELISA plates (Nunc-Immuno MaxiSorp plate, NalgeNunc, Naperville, Ill.) were coated with 100 μl of 1.0 μg/ml recombinant soluble recombinant human α5β1 integrin-Fc fusion protein in 0.2 M sodium carbonate-bicarbonate buffer (pH 9.4) overnight at 4° C. After washing with Wash Buffer (PBS containing 0.1% Tween 20), wells were blocked with 200 μl of Superblock Blocking Buffer (Pierce) for 30 min and then washed with Wash Buffer. A mixture of biotinylated murine IIA1 (0.1 μg/test) and competitor antibody (duplicates of serial 3-fold dilutions of competitior antibodies starting at 5 mg/ml) in ELISA Buffer (PBS containing 1% BSA and 0.1% Tween 20) was applied to ELISA plates in a final volume of 100 μl per well. ELISA plates were incubated for 1 hr at room temperature and the wells were washed with Wash Buffer. Then, […] of 1/1,000-diluted HRP-conjugated streptavidin (Pierce, Rockford, Ill.) in ELISA Buffer was applied to each well. After incubating for 0.5 hr at room temperature and washing with Wash Buffer, 100 μl of TMB substrate was added to each well. Absorbance was read at 450 nm using a VERSAmax microplate reader (Molecular Devices, Menlo Park, Calif.). Final competitor concentration in the reaction was plotted versus absorbance at 450 nm.
On the technique in general: An ELISA detects its analyte on a solid surface through an enzyme-linked reagent.

Test [2] deals with T1, recombinant soluble recombinant human …. Description: competition ELISA: plate coated with human α5β1 integrin-Fc, unlabelled antibody titrated against biotinylated murine IIA1, streptavidin-HRP, O.D. 450. As for the experimental part:
as §1

Test [3] deals with T2, AAB1/B2Fc.
T2 construct: Analyte in the BIAcore experiment
Kind of test: SPR (BIAcore), Fab immobilized by amine coupling, AAB1/B2Fc as analyte, 24° C. On the procedure:
(§2) Affinities between AAB1/B2Fc and IIA1, M200 or F200 were analyzed using BIAcore 3000 and 2000 (BIAcore, Sweden). IIA1, M200 or F200 was immobilized on the Pioneer F 1 chip using standard amine coupling kit (BIAcore). Surface plasmon resonance was measured at a flow rate of 50 ul/min at 24° C. Injection of AAB1/B2Fc (association phase) occurs over 180 seconds. Dissociation was subsequently monitored over 3 hours. Kinetics of binding were calculated from data acquired at five different concentrations of analyte (320 nM, 160 nM, 80 nM, 40 nM, 20 nM), using the BIAevaluation program. Double-referencing was applied to eliminate responses from reference surface and buffer only control. KD was obtained by simultaneously fitting the association and dissociation phases of the sensorgram from the analyte concentration series.
(In SPR one partner is held on a chip, and binding of the other changes the refractive index at the surface.)

For test [4], the target named is T2, AAB1/B2Fc. Description: SPR (BIAcore), antibody immobilized by amine coupling, AAB1/B2Fc as analyte, 24° C. As for the experimental part: as §2

T1 sequence (P08648 42-995 limits assumed, chain 1 of 2): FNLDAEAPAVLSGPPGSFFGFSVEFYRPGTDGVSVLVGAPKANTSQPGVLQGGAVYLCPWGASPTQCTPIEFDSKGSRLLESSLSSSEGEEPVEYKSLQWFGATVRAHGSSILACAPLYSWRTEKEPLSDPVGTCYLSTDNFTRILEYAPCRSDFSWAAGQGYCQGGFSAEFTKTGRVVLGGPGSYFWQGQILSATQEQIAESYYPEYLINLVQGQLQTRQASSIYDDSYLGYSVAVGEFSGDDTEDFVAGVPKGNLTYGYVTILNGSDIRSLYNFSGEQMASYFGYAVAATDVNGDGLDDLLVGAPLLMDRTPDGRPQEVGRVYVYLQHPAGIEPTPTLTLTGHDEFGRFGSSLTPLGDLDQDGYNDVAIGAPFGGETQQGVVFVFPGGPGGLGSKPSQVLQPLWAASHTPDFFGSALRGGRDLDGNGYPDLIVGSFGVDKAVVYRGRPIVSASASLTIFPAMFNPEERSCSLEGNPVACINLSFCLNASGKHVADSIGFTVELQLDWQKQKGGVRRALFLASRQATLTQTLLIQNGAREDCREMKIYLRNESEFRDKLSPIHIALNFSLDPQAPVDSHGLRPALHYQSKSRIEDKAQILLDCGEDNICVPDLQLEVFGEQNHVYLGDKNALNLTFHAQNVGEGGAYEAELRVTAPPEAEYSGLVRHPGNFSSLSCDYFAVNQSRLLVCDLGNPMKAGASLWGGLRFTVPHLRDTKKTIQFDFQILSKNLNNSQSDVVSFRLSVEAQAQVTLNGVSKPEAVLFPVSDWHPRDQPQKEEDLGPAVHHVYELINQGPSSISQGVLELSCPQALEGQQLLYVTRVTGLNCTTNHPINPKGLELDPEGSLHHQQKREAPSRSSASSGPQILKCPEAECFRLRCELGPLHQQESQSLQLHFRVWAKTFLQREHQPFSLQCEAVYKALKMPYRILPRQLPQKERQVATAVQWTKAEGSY
T1 sequence (P05556 21-728 limits assumed, chain 2 of 2): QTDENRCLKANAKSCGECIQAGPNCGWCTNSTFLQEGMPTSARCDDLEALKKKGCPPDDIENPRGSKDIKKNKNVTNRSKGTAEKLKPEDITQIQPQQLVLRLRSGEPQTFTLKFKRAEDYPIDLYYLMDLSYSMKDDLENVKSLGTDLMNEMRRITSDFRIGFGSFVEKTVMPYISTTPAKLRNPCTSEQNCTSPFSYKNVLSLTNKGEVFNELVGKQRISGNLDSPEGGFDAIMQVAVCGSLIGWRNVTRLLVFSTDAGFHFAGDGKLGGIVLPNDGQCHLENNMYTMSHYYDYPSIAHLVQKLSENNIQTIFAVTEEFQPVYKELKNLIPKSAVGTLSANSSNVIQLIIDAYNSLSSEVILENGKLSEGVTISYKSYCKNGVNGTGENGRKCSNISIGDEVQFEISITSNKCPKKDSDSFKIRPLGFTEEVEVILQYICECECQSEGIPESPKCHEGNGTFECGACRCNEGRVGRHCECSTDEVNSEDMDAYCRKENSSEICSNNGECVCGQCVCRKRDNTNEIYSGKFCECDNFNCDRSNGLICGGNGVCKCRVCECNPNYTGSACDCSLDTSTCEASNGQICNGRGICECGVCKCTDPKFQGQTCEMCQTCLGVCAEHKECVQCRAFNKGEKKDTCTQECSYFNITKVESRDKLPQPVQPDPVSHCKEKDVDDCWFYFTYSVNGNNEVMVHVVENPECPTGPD

B1: IIA1, mouse anti-human α5β1 integrin antibody (antibody, V domains shown)
VH: QVQLKESGPGLVAPSQSLSITCTISGFSLTDYGVHWVRQPPGKGLEWLVVIWSDGSSTYNSALKSRMTIRKDNSKSQVFLIMNSLQTDDSAMYYCARHGTYYGMTTTGDALDYWGQGTSVTVSS
VL: QIVLTQSPAIMSASLGERVTMTCTASSSVSSNYLHWYQQKPGSAPNLWIYSTSNLASGVPARFSGSGSGTSYSLTISSMEAEDAATYYCHQYLRSPPTFGGGTKLEIKR
notes: Mouse monoclonal antibody (Pharmingen); also called murine IIA1; M100
Broadly, the IC50 is the concentration that inhibits the measured activity by half. B1: the IC50 in test [1] was determined as 79.1 µg/mL. Also, the “IC50 (read off the curve)” value in test [2] is approximately 0.02 µg.

B2: F200, Fab fragment of M200 (Fab, V domains shown)
VH: QVQLKESGPGLVAPSQSLSITCTISGFSLTDYGVHWVRQPPGKGLEWLVVIWSDGSSTYNSALKSRMTIRKDNSKSQVFLIMNSLQTDDSAMYYCARHGTYYGMTTTGDALDYWGQGTSVTVSS
VL: QIVLTQSPAIMSASLGERVTMTCTASSSVSSNYLHWYQQKPGSAPNLWIYSTSNLASGVPARFSGSGSGTSYSLTISSMEAEDAATYYCHQYLRSPPTFGGGTKLEIKR
notes: Made by papain digestion of M200 IgG
What is called Kd is the free concentration of one partner at which half of the binding sites on the other are occupied at equilibrium, for simple one-to-one binding. A high value points to weaker binding. The molecule B2 gave a Kd with AAB1/B2Fc [3] of 0.332 nM.

B3: M200 chimeric anti-α5β1 integrin antibody (antibody, human IgG4, kappa, V domains shown)
VH: QVQLKESGPGLVAPSQSLSITCTISGFSLTDYGVHWVRQPPGKGLEWLVVIWSDGSSTYNSALKSRMTIRKDNSKSQVFLIMNSLQTDDSAMYYCARHGTYYGMTTTGDALDYWGQGTSVTVSS
VL: QIVLTQSPAIMSASLGERVTMTCTASSSVSSNYLHWYQQKPGSAPNLWIYSTSNLASGVPARFSGSGSGTSYSLTISSMEAEDAATYYCHQYLRSPPTFGGGTKLEIKR
notes: Mouse/human chimeric IgG4/kappa; also called 200-M; 200-4 EOS
In the test with AAB1/B2Fc [4], B3 yielded a Kd of 0.367 nM. For the same molecule, the IC50 in test [1] stood at 106 µg/mL. Moreover, the “IC50 (read off the curve)” value in test [2] was approximately 0.02 µg.

B4: HuM200, humanized M200 with IgG4 constant region (antibody, V domains shown)
VH: EVQLVESGGGLVQPGGSLRLSCAASGFSLTDYGVHWVRQAPGKGLEWLVVIWSDGSSTYNSALKSRMTISKDNAKNTVYLQMNSLRAEDTAVYYCARHGTYYGMTTTGDALDYWGQGTLVTVSS
VL: EIVLTQSPATLSLSPGERATLSCTASSSVSSNYLHWYQQKPGQAPRLLIYSTSNLASGVPARFSGSGSGTSYTLTISSLEPEDFAVYYCHQYLRSPPTFGGGTKVEIKR
notes: Humanized IgG4; also called HuM200-G4; huM200-G4
For the molecule B4, the IC50 in test [1] was 132 µg/mL. In test [2], the “IC50 (read off the curve)” value is approximately 0.02 µg.

B5: HuM200-g2 m3G, humanized M200 with IgG2 constant region (antibody, V domains shown)
VH: EVQLVESGGGLVQPGGSLRLSCAASGFSLTDYGVHWVRQAPGKGLEWLVVIWSDGSSTYNSALKSRMTISKDNAKNTVYLQMNSLRAEDTAVYYCARHGTYYGMTTTGDALDYWGQGTLVTVSS
VL: EIVLTQSPATLSLSPGERATLSCTASSSVSSNYLHWYQQKPGQAPRLLIYSTSNLASGVPARFSGSGSGTSYTLTISSLEPEDFAVYYCHQYLRSPPTFGGGTKVEIK
notes: Same variable domains as HuM200 with a constant region of IgG2
With B5, in test [1], the IC50 stood at 103 µg/mL. Besides, the “IC50 (read off the curve)” value in test [2] was approximately 0.02 µg.
